Data as given in article PMC12708868.

Biological target: 1G4 TCRαβ with TCRβ T130C/H172C, on J8Zb2m-α-β- reporter T cells (human)

Q: How did the peak NFAT reporter response to HLA–antigen tetramers relative to wild type turn out when “iTAg tetramer/APC – HLA-A*02:01 NY-ESO-1 (…) (from UniProt P61769 21-119) (peptide-MHC)” was run?
A: 50 % reduction
